Reference: publication PMC2893164, “Structural Basis of Gate-DNA Breakage and Resealing by Type II Topoisomerases”

Target: ParC55 (topoisomerase IV ParC breakage-reunion domain);ParE30 (topoisomerase IV ParE TOPRIM domain) (Streptococcus pneumoniae;Streptococcus …, UniProt P72525;Q59961 1-488;404-647, |)
Experiment: X-ray crystallography (3.1 A); PD 0305970 (two intercalated), Mg2+; cleaved DNA, covalent Tyr118; Complex: 20 mM Tris-HCl pH 7.0, 200 then 75 mM NaCl, 10% glycerol, 1 mM b-mercaptoethanol, 20 mM MgCl2, 0.05% NaN3, PD 0305970, room temperature; crystals: 50 mM Na cacodylate pH 6.5, 2.5% Tacsimate pH 7.0, 62.5 mM KCl, 7.5 mM MgCl2, 4-6% isopropanol; data at 100 K
Settings: protein: recombinant;recombinant; tags: C-terminal His tag;N-terminal His tag; chain copies: 2;2; blunt

Chain of ParC55 (topoisomerase IV ParC breakage-reunion domain);ParE30 (topoisomerase IV ParE TOPRIM domain) (P72525 1-488, chain 1 of 2): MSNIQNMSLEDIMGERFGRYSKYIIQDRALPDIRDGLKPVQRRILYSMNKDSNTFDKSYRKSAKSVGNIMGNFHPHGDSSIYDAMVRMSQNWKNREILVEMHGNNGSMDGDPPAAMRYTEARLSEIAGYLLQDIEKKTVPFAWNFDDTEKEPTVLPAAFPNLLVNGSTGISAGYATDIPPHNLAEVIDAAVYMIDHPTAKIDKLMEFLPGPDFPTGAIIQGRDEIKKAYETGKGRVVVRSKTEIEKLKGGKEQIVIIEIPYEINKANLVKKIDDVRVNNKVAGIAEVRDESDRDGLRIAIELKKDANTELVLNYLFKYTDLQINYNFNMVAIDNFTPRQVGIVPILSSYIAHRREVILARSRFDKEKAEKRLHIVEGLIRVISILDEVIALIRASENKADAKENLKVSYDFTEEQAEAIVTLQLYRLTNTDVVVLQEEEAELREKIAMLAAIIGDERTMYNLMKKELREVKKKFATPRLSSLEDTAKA
Chain of ParC55 (topoisomerase IV ParC breakage-reunion domain);ParE30 (topoisomerase IV ParE TOPRIM domain) (Q59961 404-647, chain 2 of 2): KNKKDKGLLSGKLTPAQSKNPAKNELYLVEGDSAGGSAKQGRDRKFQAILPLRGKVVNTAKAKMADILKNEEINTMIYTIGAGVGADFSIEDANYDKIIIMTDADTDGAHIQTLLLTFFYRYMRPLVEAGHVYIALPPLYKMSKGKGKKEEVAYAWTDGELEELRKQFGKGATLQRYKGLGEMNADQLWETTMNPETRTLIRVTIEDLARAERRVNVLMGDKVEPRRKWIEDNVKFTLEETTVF

B1: 34-bp E-site G-segment DNA (dsDNA)
DNA 1: ACCAAGGTCATGAATGACTATGCACGTAAAACAG
DNA 2: CTGTTTTACGTGCATAGTCATTCATGACCTTGGT
modifications: none (cleaved with 4-bp stagger in the complex, or resealed, by row)
binding result: binds
